Experimental data from patent US20170056486A1 (IMMATICS BIOTECHNOLOGIES, published 2017).

Tests used:
HLA-A*02 [1] = molecular target: T1, HLA-A*02 (human); assay: UV-exchange ELISA (anti-b2m); yield 50%-75%
T1 construct: Peptide-receptive MHC monomer made by UV cleavage of a UV-sensitive ligand and captured on streptavidin plates; also called HLA-A*02 MHC class I molecule; peptide-receptive MHC
From the text: (§1) Candidate peptides for T cell based therapies according to the present invention were further tested for their MHC binding capacity (affinity). The individual peptide-MHC complexes were produced by UV-ligand exchange, where a UV-sensitive peptide is cleaved upon UV-irradiation, and exchanged with the peptide of interest as analyzed. Only peptide candidates that can effectively bind and stabilize the peptide-receptive MHC molecules prevent dissociation of the MHC complexes. To determine the yield of the exchange reaction, an ELISA was performed based on the detection of the light chain (β2m) of stabilized MHC complexes. The assay was performed as generally described in Rodenko et al. (Rodenko et al., 2006).
(§2) 96 well MAXISorp plates (NUNC) were coated over night with 2 ug/ml streptavidin in PBS at room temperature, washed 4× and blocked for 1 h at 37° C. in 2% BSA containing blocking buffer. […] Peptide-MHC monomers of the UV-exchange reaction were diluted 100 fold in blocking buffer. Samples were incubated for 1 h at 37° C., washed four times, incubated with 2 ug/ml HRP conjugated anti-β2m for 1 h at 37° C., washed again and detected with TMB solution that is stopped with […]. Absorption was measured at 450 nm.

HLA-A*02 [2] = molecular target: T1, HLA-A*02; assay: UV-exchange ELISA (anti-b2m); yield 20%-49%
From the text: as §1, §2

| Binder | peptide exchange yield (HLA-A*02 [1]) [%] | peptide exchange yield (HLA-A*02 [2]) [%] |
| --- | --- | --- |
| KVDGVVIQL | 50 to 75 |  |
| LLDESKLTL | 50 to 75 |  |
| FLDPAQRDL | 50 to 75 |  |
| IVLSTIASV | 50 to 75 |  |
| ELLSSIFFL | 50 to 75 |  |
| TLLPTVLTL | 50 to 75 |  |
| STLDGSLHAV | 50 to 75 |  |
| GVLKVFLENV |  | 20 to 49 |
| ALDGHLYAI | 50 to 75 |  |
| ILLDESNFNHFL | 50 to 75 |  |
| ALVSGGVAQA | 50 to 75 |  |
| ALMAVVSGL | 50 to 75 |  |
| KMQEDLVTL | 50 to 75 |  |
| GLYQAQVNL | 50 to 75 |  |
| VLRDNIQGI | 50 to 75 |  |
| LLLPLLPPLSPSLG | 50 to 75 |  |
| PLWGKVFYL |  | 20 to 49 |
| GTFLEGVAK | 50 to 75 |  |
| GLITVDIAL | 50 to 75 |  |
| AAAAKVPEV | 50 to 75 |  |
| LLLDGDFTL | 50 to 75 |  |
| AIWKELISL | 50 to 75 |  |
| TLYSMDLMKV | 50 to 75 |  |

| Binder | peptide exchange yield (HLA-A*02 [1]) [%] | peptide exchange yield (HLA-A*02 [2]) [%] |
| --- | --- | --- |
| SLLSHVIVA | 50 to 75 |  |
| FVLPLVVTL | 50 to 75 |  |
| SLFNQEVQI | 50 to 75 |  |
| ILDNVKNLL | 50 to 75 |  |
| ILADEAFFSV | 50 to 75 |  |
| FLWNGEDSAL | 50 to 75 |  |
| FLEEEITRV | 50 to 75 |  |
| SLWFKPEEL | 50 to 75 |  |
| ILHEHHIFL | 50 to 75 |  |
| VLSPFILTL | 50 to 75 |  |
| TLDEYLTYL | 50 to 75 |  |
| KLDGICWQV | 50 to 75 |  |
| GIYDGILHSI | 50 to 75 |  |
| ELAEIVFKV | 50 to 75 |  |
| FLGDYVENL |  | 20 to 49 |
| YVLNEEDLQKV | 50 to 75 |  |
| SLLALPQDLQA | 50 to 75 |  |
| KTLDVFNIIL |  | 20 to 49 |
| VLGPTPELV | 50 to 75 |  |
| KLGPFLLNA | 50 to 75 |  |
| SLLTQPIFL | 50 to 75 |  |
| FITDFYTTV | 50 to 75 |  |
| TLLGKQVTL | 50 to 75 |  |

| Binder | peptide exchange yield (HLA-A*02 [1]) [%] | peptide exchange yield (HLA-A*02 [2]) [%] |
| --- | --- | --- |
| ALINDILGELVKL | 50 to 75 |  |
| KVFGDLDQV | 50 to 75 |  |
| GLFSQHFNL (also called DNMT3B-001) | 50 to 75 |  |
| LLWGHPRVA | 50 to 75 |  |
| ILLNTEDLASL | 50 to 75 |  |
| KVLGKIEKV | 50 to 75 |  |
| FINPKGNWLL | 50 to 75 |  |
| ILSVVNSQL (also called KIAA0226L-002) | 50 to 75 |  |
| SLLPLVWKI | 50 to 75 |  |
| SLFGQEVYC | 50 to 75 |  |
| YLVAHNLLL | 50 to 75 |  |
| ALYGKLLKL | 50 to 75 |  |
| TLCNKTFTA | 50 to 75 |  |
| ALTKILAEL | 50 to 75 |  |
| GRADALRVL | 50 to 75 |  |
| SIGDIFLKY | 50 to 75 |  |
| FLWPKEVEL | 50 to 75 |  |
| LLWAGPVTA | 50 to 75 |  |
| GMIGFQVLL | 50 to 75 |  |
| YLTEVFLHVV | 50 to 75 |  |
| ELLEYLPQL | 50 to 75 |  |
| SLAKHGIVAL | 50 to 75 |  |
